Values quoted from earlier work, collected in patent US9817004B2, “Development and use of cysteine-labeled fluorescent probes of unbound analytes” (priority 2008, dated 2017).
Changes are numbered by the printed parent chain.

B1: Thr81Cys: I-FABP mutant Thr81Cys labeled with acrylodan (Kleinfeld '714) (protein, UniProt P02693 2-132, looked up, variant T81C)
Fatty acid-binding protein, …: AFDGTWKVDRNENYEKFMEKMGINVVKRKLGAHDNLKLTITQEGNKFTVKESSNFRNIDVVFELGVDFAYSLADGTELTGCWTMEGNKLVGKFKRVDNGKELIAVREISGNELIQTYTYEGVEAKRIFKKE
modifications: acrylodan label
B2: Thr83Cys: I-FABP mutant Thr83Cys labeled with acrylodan (Kleinfeld '714) (protein, UniProt P02693 2-132, looked up, variant T83C)
Fatty acid-binding protein, …: B1 Fatty acid-binding protein, … with C81T, T83C
modifications: acrylodan label

Conditions: I-FABP mutants labeled with acrylodan; from U.S. Pat. No. 5,470,714; cited from earlier work

| Molecule | fluorescence response to FFAu binding |
| --- | --- |
| B1 | unresponsive to FFAu binding |
| B2 | unresponsive to FFAu binding |
